This note sets out measurements from article PMC2148133.

A word on the stoichiometry N: it is a count of units in the complex or per binding partner.

For the assay, the target named is Xklp2 (Xenopus kinesin-like protein 2), endogenous full-length protein (Xenopus (endogenous in Xenopus egg extract)) (UniProt Q91785). Briefly: SEC + other: sucrose gradient centrifugation.

Turning to “Xklp2 (Xenopus kinesin-like protein 2), endogenous full-length protein (from UniProt Q91785 1-1388) (natural protein)”, the stoichiometry N is 2.
